In doi:10.1101/2023.06.11.543863:
Where two headings read alike, the source gives them in different places.

What was measured:
Test in all cases: FRET or BRET
[1] = target: E. coli ribosomal pre-translocation complex lacking an A-site tRNA (PRE^−A complex) (E. coli) (UniProt P0A7L0)
[2] = target: E. coli ribosomal pre-translocation complex lacking an A-site tRNA (PRE^−A complex) (E. coli) (UniProt P0A7L0); remark: listed apart in the source
[3] = target: E. coli ribosomal pre-translocation complex lacking an A-site tRNA (PRE^−A complex) (E. coli) (UniProt P0A7L0); remark: listed apart in the source

Chain of UniProt P0A7L0 (P0A7L0 whole entry, looked up, one chain of several): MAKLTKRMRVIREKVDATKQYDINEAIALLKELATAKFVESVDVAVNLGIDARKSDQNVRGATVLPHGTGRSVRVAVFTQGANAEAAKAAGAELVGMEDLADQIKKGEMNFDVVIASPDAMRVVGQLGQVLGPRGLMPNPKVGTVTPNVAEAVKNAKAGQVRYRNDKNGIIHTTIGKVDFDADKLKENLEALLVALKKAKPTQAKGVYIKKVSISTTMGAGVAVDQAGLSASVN

EQ2-EttA (E. coli EttA with both catalytic glutamates changed to glutamine) (from UniProt P0A9W3 1-555) (enzyme)
Kd [1]: < 6 µM

EQ2-Uup (E. coli Uup with both catalytic glutamates changed to glutamine) (from UniProt P43672 1-635) (enzyme)
Kd [2]: 1 µM | Kd [1]: < 6 µM

EQ2-YbiT (E. coli YbiT with both catalytic glutamates changed to glutamine) (from UniProt P0A9U3 1-530) (enzyme)
Kd [1]: < 6 µM

EQ2-YheS (E. coli YheS with both catalytic glutamates changed to glutamine) (from UniProt P63389 1-637) (enzyme)
Kd [1]: < 6 µM | Kd [3]: < 1 µM
